Experimental data from the supplement of paper PMC10065799, “High-throughput profiling of sequence recognition by tyrosine kinases and SH2 domains using bacterial peptide display” (eLife, 2023).

tested on: AncSZ; assay: phosphorylation enrichment, bacterial display (enrichment ratio); higher = better substrate or ligand; peptides without Tyr show the background
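Note: 11-residue human phosphosite peptides and single-mutation variants displayed on the E. coli surface, counted by deep sequencing, each peptide's frequency after selection divided by its frequency in the unselected input library; frequency after pTyr selection over input frequency; kinase dosed for 20-30% of maximal phosphorylation in three min.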

Compared with FSKTQYNQVPS [CXADR_Y318_YF], SHISGYAALRR [RAPH1_Y1226_T1228A] is higher in phosphorylation enrichment: 0.801 for the first, 0.836 for the second.

First: ASSPVYVPTTR [GATA6_Y188]
Second: RVILRYVNPGN [LAMA3_Y791_T796N]
The phosphorylation enrichment of the first is lower: 0.525 for the first, 1.47 for the second.

Going from EIELAYRRRPP [GRIN2B_Y1109] to DPGVSYHTREE [PDHA1_Y301_R302H], the phosphorylation enrichment rises from 0.661 to 0.677.

Going from SLIDMYSEVPD [OPA1_Y268_L272P] to MGRVKYGAFIN [GLB1_Y485_N484K_YF], the phosphorylation enrichment falls from 1.27 to 0.566.

Compared with REENGYNTFAS [FGF10_Y161_I156R_YF], LFRFGYANTSE [SI_Y1233_C1229Y_YF] is lower in phosphorylation enrichment: 0.973 for the first, 0.696 for the second.

Going from VYYYSYLLKNH [PTEN_Y180] to VILARYGPAWR [CYP2D6_Y124_F120I], the phosphorylation enrichment falls from 1.48 to 1.09.

Compared with FQKNIYSEELR [LMNA_Y211], RQNNSYTCYTA [SLC20A2_Y386_R382Q] is higher in phosphorylation enrichment: 1.01 for the first, 1.11 for the second.

Compared with KFDLMYAKCAF [TUBA1A_Y399_R402C], NTGGYYDLYGG [PTPN11_Y63_D61G] is higher in phosphorylation enrichment: 1.27 for the first, 1.51 for the second.

Going from LENQTYFKSFE [AKAP9_Y2482] to LENSTYQFIRV [CRB1_Y760_YF], the phosphorylation enrichment falls from 1.59 to 1.36.

Going from SVTCTFSPALN [TP53_Y126_Y126F] to ESMLRYDVYGG [STOX1_Y607_E608D], the phosphorylation enrichment falls from 2.01 to 0.96.

Going from KEAVLYPHLPP [SQSTM1_Y383_A381V] to PYSSPYENSLI [EPOR_Y489_N487S], the phosphorylation enrichment rises from 0.566 to 0.83.

First: MKSIKYMDKEV [CCDC60_Y41_I46V]
Second: LHRAHYDLHHT [AHSG_Y314_R317H]
The phosphorylation enrichment of the first is lower: 0.664 for the first, 0.836 for the second.

Compared with HGEAFYSEVKA [PAK5_Y182_P187A_YF], YFVVEYRNQKP [MUC17_Y4332_D4334N] is higher in phosphorylation enrichment: 0.971 for the first, 1.72 for the second.

Going from TAALWYIFSHT [ENG_Y612_YF] to EAVSIYQFYGQ [CBLC_Y402_H405Y], the phosphorylation enrichment rises from 1.26 to 2.11.

Sequence PDGHEYIFVDP [PDGFRA_Y572_YF] has a phosphorylation enrichment of 2.01.

biological target: FGFR1 (UniProt P11362); assay: as above
Sequence (P11362 whole entry, looked up): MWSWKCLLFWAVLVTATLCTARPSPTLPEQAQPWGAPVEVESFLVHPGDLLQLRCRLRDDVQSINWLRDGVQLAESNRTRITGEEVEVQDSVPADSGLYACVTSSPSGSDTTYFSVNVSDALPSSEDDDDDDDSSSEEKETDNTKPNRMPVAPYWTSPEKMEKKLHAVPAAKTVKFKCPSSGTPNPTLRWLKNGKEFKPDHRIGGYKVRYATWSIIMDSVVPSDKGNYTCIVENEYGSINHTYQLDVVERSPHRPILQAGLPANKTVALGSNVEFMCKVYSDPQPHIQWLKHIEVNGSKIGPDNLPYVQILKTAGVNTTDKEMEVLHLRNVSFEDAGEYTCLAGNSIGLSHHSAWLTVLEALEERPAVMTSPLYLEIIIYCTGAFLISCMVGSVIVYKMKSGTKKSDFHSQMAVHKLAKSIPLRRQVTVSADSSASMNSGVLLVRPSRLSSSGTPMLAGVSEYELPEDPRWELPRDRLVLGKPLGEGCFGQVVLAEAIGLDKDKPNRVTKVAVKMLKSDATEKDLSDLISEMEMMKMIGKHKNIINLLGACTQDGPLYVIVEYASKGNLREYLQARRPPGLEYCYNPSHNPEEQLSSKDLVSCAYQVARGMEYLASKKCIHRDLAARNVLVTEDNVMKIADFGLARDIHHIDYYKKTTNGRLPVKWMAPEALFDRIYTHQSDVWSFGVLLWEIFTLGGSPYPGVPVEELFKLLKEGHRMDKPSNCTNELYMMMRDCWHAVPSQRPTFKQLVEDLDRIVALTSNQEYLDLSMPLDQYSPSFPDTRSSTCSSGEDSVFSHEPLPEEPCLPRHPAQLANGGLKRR

Going from FSKTQYNQVPS [CXADR_Y318_YF] to SHISGYAALRR [RAPH1_Y1226_T1228A], the phosphorylation enrichment falls from 0.577 to 0.361.

Going from ASSPVYVPTTR [GATA6_Y188] to RVILRYVNPGN [LAMA3_Y791_T796N], the phosphorylation enrichment rises from 0.323 to 0.614.

Compared with EIELAYRRRPP [GRIN2B_Y1109], DPGVSYHTREE [PDHA1_Y301_R302H] is higher in phosphorylation enrichment: 0.41 for the first, 0.452 for the second.

Compared with SLIDMYSEVPD [OPA1_Y268_L272P], MGRVKYGAFIN [GLB1_Y485_N484K_YF] is lower in phosphorylation enrichment: 0.892 for the first, 0.402 for the second.

Going from REENGYNTFAS [FGF10_Y161_I156R_YF] to LFRFGYANTSE [SI_Y1233_C1229Y_YF], the phosphorylation enrichment falls from 0.728 to 0.619.

Going from VYYYSYLLKNH [PTEN_Y180] to VILARYGPAWR [CYP2D6_Y124_F120I], the phosphorylation enrichment falls from 4.67 to 0.608.

Compared with FQKNIYSEELR [LMNA_Y211], RQNNSYTCYTA [SLC20A2_Y386_R382Q] is lower in phosphorylation enrichment: 0.801 for the first, 0.557 for the second.

Going from KFDLMYAKCAF [TUBA1A_Y399_R402C] to NTGGYYDLYGG [PTPN11_Y63_D61G], the phosphorylation enrichment rises from 0.491 to 13.3.

First: LENQTYFKSFE [AKAP9_Y2482]
Second: LENSTYQFIRV [CRB1_Y760_YF]
The phosphorylation enrichment of the first is lower: 0.956 for the first, 5.63 for the second.

Compared with SVTCTFSPALN [TP53_Y126_Y126F], ESMLRYDVYGG [STOX1_Y607_E608D] is lower in phosphorylation enrichment: 0.602 for the first, 0.482 for the second.

First: KEAVLYPHLPP [SQSTM1_Y383_A381V]
Second: PYSSPYENSLI [EPOR_Y489_N487S]
The phosphorylation enrichment of the first is lower: 0.444 for the first, 0.527 for the second.

Compared with MKSIKYMDKEV [CCDC60_Y41_I46V], LHRAHYDLHHT [AHSG_Y314_R317H] is higher in phosphorylation enrichment: 0.437 for the first, 0.511 for the second.

Compared with HGEAFYSEVKA [PAK5_Y182_P187A_YF], YFVVEYRNQKP [MUC17_Y4332_D4334N] is higher in phosphorylation enrichment: 4.75 for the first, 11.1 for the second.

Going from TAALWYIFSHT [ENG_Y612_YF] to EAVSIYQFYGQ [CBLC_Y402_H405Y], the phosphorylation enrichment rises from 0.543 to 1.6.

PDGHEYIFVDP [PDGFRA_Y572_YF] showed a phosphorylation enrichment of 2.86.

biological target: Fyn (UniProt P06241); assay: as above
Sequence (P06241 whole entry, looked up): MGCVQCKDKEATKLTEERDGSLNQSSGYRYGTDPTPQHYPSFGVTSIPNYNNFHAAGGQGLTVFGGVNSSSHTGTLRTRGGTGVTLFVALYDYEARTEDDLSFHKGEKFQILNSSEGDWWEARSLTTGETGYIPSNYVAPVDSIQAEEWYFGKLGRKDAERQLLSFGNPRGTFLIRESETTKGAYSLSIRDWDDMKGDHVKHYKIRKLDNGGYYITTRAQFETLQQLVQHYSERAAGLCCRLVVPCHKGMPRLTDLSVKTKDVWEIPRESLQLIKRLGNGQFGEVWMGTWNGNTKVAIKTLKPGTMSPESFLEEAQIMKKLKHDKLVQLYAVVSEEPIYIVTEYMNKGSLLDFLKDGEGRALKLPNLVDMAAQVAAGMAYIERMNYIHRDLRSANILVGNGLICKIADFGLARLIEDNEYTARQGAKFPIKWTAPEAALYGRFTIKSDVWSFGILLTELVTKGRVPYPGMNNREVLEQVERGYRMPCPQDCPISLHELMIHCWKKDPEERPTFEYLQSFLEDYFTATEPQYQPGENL

First: FSKTQYNQVPS [CXADR_Y318_YF]
Second: SHISGYAALRR [RAPH1_Y1226_T1228A]
The phosphorylation enrichment of the first is higher: 0.507 for the first, 0.494 for the second.

First: ASSPVYVPTTR [GATA6_Y188]
Second: RVILRYVNPGN [LAMA3_Y791_T796N]
The phosphorylation enrichment of the first is lower: 0.429 for the first, 0.617 for the second.

Compared with EIELAYRRRPP [GRIN2B_Y1109], DPGVSYHTREE [PDHA1_Y301_R302H] is higher in phosphorylation enrichment: 0.45 for the first, 0.483 for the second.

Compared with SLIDMYSEVPD [OPA1_Y268_L272P], MGRVKYGAFIN [GLB1_Y485_N484K_YF] is lower in phosphorylation enrichment: 0.595 for the first, 0.382 for the second.

First: REENGYNTFAS [FGF10_Y161_I156R_YF]
Second: LFRFGYANTSE [SI_Y1233_C1229Y_YF]
The phosphorylation enrichment of the first is higher: 0.84 for the first, 0.411 for the second.

Compared with VYYYSYLLKNH [PTEN_Y180], VILARYGPAWR [CYP2D6_Y124_F120I] is lower in phosphorylation enrichment: 1.12 for the first, 0.527 for the second.

Compared with FQKNIYSEELR [LMNA_Y211], RQNNSYTCYTA [SLC20A2_Y386_R382Q] is lower in phosphorylation enrichment: 0.965 for the first, 0.58 for the second.

Going from KFDLMYAKCAF [TUBA1A_Y399_R402C] to NTGGYYDLYGG [PTPN11_Y63_D61G], the phosphorylation enrichment rises from 0.567 to 8.66.

Compared with LENQTYFKSFE [AKAP9_Y2482], LENSTYQFIRV [CRB1_Y760_YF] is higher in phosphorylation enrichment: 1.08 for the first, 2.87 for the second.

Going from SVTCTFSPALN [TP53_Y126_Y126F] to ESMLRYDVYGG [STOX1_Y607_E608D], the phosphorylation enrichment rises from 0.562 to 1.04.

First: KEAVLYPHLPP [SQSTM1_Y383_A381V]
Second: PYSSPYENSLI [EPOR_Y489_N487S]
The phosphorylation enrichment of the first is lower: 0.415 for the first, 0.668 for the second.

Compared with MKSIKYMDKEV [CCDC60_Y41_I46V], LHRAHYDLHHT [AHSG_Y314_R317H] is higher in phosphorylation enrichment: 0.344 for the first, 0.637 for the second.

Compared with HGEAFYSEVKA [PAK5_Y182_P187A_YF], YFVVEYRNQKP [MUC17_Y4332_D4334N] is lower in phosphorylation enrichment: 3.92 for the first, 0.842 for the second.

Compared with TAALWYIFSHT [ENG_Y612_YF], EAVSIYQFYGQ [CBLC_Y402_H405Y] is higher in phosphorylation enrichment: 0.514 for the first, 9.16 for the second.

With PDGHEYIFVDP [PDGFRA_Y572_YF] the phosphorylation enrichment was 0.712.

biological target: Fes (UniProt P07332); assay: as above
Sequence (P07332 whole entry, looked up): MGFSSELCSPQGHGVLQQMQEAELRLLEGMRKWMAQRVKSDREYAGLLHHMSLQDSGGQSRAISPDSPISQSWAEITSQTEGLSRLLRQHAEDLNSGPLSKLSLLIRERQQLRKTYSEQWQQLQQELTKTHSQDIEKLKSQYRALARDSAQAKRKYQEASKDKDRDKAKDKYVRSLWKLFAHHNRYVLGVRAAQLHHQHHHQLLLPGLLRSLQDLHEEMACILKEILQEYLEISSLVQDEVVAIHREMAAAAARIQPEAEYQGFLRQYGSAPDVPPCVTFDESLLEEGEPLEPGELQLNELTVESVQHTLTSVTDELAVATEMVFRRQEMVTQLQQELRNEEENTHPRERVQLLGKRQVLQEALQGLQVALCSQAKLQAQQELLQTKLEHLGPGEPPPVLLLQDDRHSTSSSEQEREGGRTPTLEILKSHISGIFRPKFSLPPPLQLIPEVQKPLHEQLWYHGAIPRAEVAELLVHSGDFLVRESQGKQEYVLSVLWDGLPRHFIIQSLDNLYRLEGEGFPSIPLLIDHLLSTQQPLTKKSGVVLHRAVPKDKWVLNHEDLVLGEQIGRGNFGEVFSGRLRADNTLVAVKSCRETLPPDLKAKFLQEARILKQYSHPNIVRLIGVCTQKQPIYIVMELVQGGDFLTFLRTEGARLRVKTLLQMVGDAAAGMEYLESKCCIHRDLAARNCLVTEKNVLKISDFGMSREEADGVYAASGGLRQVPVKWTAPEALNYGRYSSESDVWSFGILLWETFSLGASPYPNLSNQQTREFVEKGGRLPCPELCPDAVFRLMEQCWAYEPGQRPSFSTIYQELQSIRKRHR

Compared with FSKTQYNQVPS [CXADR_Y318_YF], SHISGYAALRR [RAPH1_Y1226_T1228A] is higher in phosphorylation enrichment: 0.85 for the first, 1.04 for the second.

First: ASSPVYVPTTR [GATA6_Y188]
Second: RVILRYVNPGN [LAMA3_Y791_T796N]
The phosphorylation enrichment of the first is lower: 0.539 for the first, 2.02 for the second.

Going from EIELAYRRRPP [GRIN2B_Y1109] to DPGVSYHTREE [PDHA1_Y301_R302H], the phosphorylation enrichment rises from 0.587 to 0.764.

Compared with SLIDMYSEVPD [OPA1_Y268_L272P], MGRVKYGAFIN [GLB1_Y485_N484K_YF] is lower in phosphorylation enrichment: 1.03 for the first, 0.701 for the second.

Compared with REENGYNTFAS [FGF10_Y161_I156R_YF], LFRFGYANTSE [SI_Y1233_C1229Y_YF] is lower in phosphorylation enrichment: 1 for the first, 0.937 for the second.

Compared with VYYYSYLLKNH [PTEN_Y180], VILARYGPAWR [CYP2D6_Y124_F120I] is lower in phosphorylation enrichment: 1.33 for the first, 1.09 for the second.

First: FQKNIYSEELR [LMNA_Y211]
Second: RQNNSYTCYTA [SLC20A2_Y386_R382Q]
The phosphorylation enrichment of the first is higher: 1.24 for the first, 0.897 for the second.

Compared with KFDLMYAKCAF [TUBA1A_Y399_R402C], NTGGYYDLYGG [PTPN11_Y63_D61G] is lower in phosphorylation enrichment: 1.35 for the first, 1.18 for the second.

First: LENQTYFKSFE [AKAP9_Y2482]
Second: LENSTYQFIRV [CRB1_Y760_YF]
The phosphorylation enrichment of the first is lower: 1.33 for the first, 1.52 for the second.

Going from SVTCTFSPALN [TP53_Y126_Y126F] to ESMLRYDVYGG [STOX1_Y607_E608D], the phosphorylation enrichment falls from 1.89 to 0.972.

Compared with KEAVLYPHLPP [SQSTM1_Y383_A381V], PYSSPYENSLI [EPOR_Y489_N487S] is higher in phosphorylation enrichment: 0.727 for the first, 0.924 for the second.

First: MKSIKYMDKEV [CCDC60_Y41_I46V]
Second: LHRAHYDLHHT [AHSG_Y314_R317H]
The phosphorylation enrichment of the first is lower: 0.554 for the first, 1.01 for the second.

Going from HGEAFYSEVKA [PAK5_Y182_P187A_YF] to YFVVEYRNQKP [MUC17_Y4332_D4334N], the phosphorylation enrichment rises from 1.01 to 1.36.

Going from TAALWYIFSHT [ENG_Y612_YF] to EAVSIYQFYGQ [CBLC_Y402_H405Y], the phosphorylation enrichment falls from 1.5 to 1.38.

With PDGHEYIFVDP [PDGFRA_Y572_YF] the phosphorylation enrichment was 1.04.
